Measured values as given in patent publication US12186374B2 (Sanofi-Aventis Deutschland GmbH, priority 2014, dated 2025).

System: patients with Type 2 diabetes mellitus (T2DM)
Assay: Treatment-emergent adverse events incl. serious, fatal, leading to discontinuation (Example 2)
[1] = PT ≥3% in any treatment group, Safety population

Gly(A21)-Arg(B31)-Arg(B32)-human insulin [Insulin Glargine]
Diarrhea, % of patients (Example 2): 4.3% | Nausea, % of patients (Example 2): 3.6% | Nausea, number of patients (Example 2): 17 patients | Overall incidence of gastrointestinal adverse events (Example 2): 12.6% | Patients reporting treatment-emergent adverse events, % (Example 2): 48.6% | Patients reporting treatment-emergent adverse events, number (Example 2): 227 patients | Patients who withdrew from treatment due to TEAEs (Example 2): 1.9% | Patients with at least 1 TEAE leading to death (Example 2): 3 patients | Serious TEAEs, % of patients (Example 2): 4.1% | Serious TEAEs, number of patients (Example 2): 19 patients | Upper respiratory tract infection, % of patients (Example 2): 4.9% | Withdrawals caused by gastrointestinal adverse events (Example 2): 0.2% | TEAE: Back pain [1]: 10 (2.1%) n (%) | TEAE: Diarrhoea [1]: 20 (4.3%) n (%) | TEAE: Dizziness [1]: 7 (1.5%) n (%) | TEAE: Headache [1]: 15 (3.2%) n (%) | TEAE: Influenza [1]: 11 (2.4%) n (%) | TEAE: Nasopharyngitis [1]: 25 (5.4%) n (%) | TEAE: Nausea [1]: 17 (3.6%) n (%) | TEAE: Upper respiratory tract infection [1]: 23 (4.9%) n (%) | TEAE: Vomiting [1]: 7 (1.5%) n (%) | Serious TEAE: Acquired phimosis (PT, Safety population): 0 n (%) | Serious TEAE: Acute kidney injury (PT, Safety population): 0 n (%) | Serious TEAE: Acute myocardial infarction (PT, Safety population): 1 (0.2%) n (%) | Serious TEAE: Acute pulmonary oedema (PT, Safety population): 1 (0.2%) n (%) | Serious TEAE: Anaphylactic reaction (PT, Safety population): 0 n (%) | Serious TEAE: Angioedema (PT, Safety population): 0 n (%) | Serious TEAE: Bladder prolapse (PT, Safety population): 1 (0.2%) n (%) | Serious TEAE: Bronchitis (PT, Safety population): 1 (0.2%) n (%) | Serious TEAE: Calculus urinary (PT, Safety population): 1 (0.2%) n (%) | Serious TEAE: Cardiac failure acute (PT, Safety population): 1 (0.2%) n (%) | Serious TEAE: Cardiac failure chronic (PT, Safety population): 1 (0.2%) n (%) | Serious TEAE: Cardiac failure congestive (PT, Safety population): 1 (0.2%) n (%) | Serious TEAE: Cervical dysplasia (PT, Safety population): 0 n (%) | Serious TEAE: Cholecystitis chronic (PT, Safety population): 0 n (%) | Serious TEAE: Chronic obstructive pulmonary disease (PT, Safety population): 1 (0.2%) n (%) | Serious TEAE: Comminuted fracture (PT, Safety population): 1 (0.2%) n (%) | Serious TEAE: Coronary artery disease (PT, Safety population): 1 (0.2%) n (%) | Serious TEAE: Costochondritis (PT, Safety population): 1 (0.2%) n (%) | Serious TEAE: Death (PT, Safety population): 0 n (%) | Serious TEAE: Diabetes mellitus inadequate control (PT, Safety population): 0 n (%) | Serious TEAE: Dyspnoea (PT, Safety population): 1 (0.2%) n (%) | Serious TEAE: Electrocardiogram ST-T segment abnormal (PT, Safety population): 0 n (%) | Serious TEAE: Erysipelas (PT, Safety population): 0 n (%) | Serious TEAE: Febrile infection (PT, Safety population): 0 n (%) | Serious TEAE: Hydronephrosis (PT, Safety population): 1 (0.2%) n (%) | Serious TEAE: Hypertension (PT, Safety population): 1 (0.2%) n (%) | Serious TEAE: Lacunar infarction (PT, Safety population): 1 (0.2%) n (%) | Serious TEAE: Lipase increased (PT, Safety population): 1 (0.2%) n (%) | Serious TEAE: Lung cancer metastatic (PT, Safety population): 0 n (%) | Serious TEAE: Lung neoplasm malignant (PT, Safety population): 0 n (%) | Serious TEAE: Meningitis staphylococcal (PT, Safety population): 0 n (%) | Serious TEAE: Metabolic acidosis (PT, Safety population): 0 n (%) | Serious TEAE: Metastases to liver (PT, Safety population): 0 n (%) | Serious TEAE: Metrorrhagia (PT, Safety population): 0 n (%) | Serious TEAE: Myocardial infarction (PT, Safety population): 1 (0.2%) n (%) | Serious TEAE: Non-cardiac chest pain (PT, Safety population): 1 (0.2%) n (%) | Serious TEAE: Oesophagitis (PT, Safety population): 0 n (%) | Serious TEAE: Palpitations (PT, Safety population): 0 n (%) | Serious TEAE: Pancreatic carcinoma (PT, Safety population): 1 (0.2%) n (%) | Serious TEAE: Pancytopenia (PT, Safety population): 1 (0.2%) n (%) | Serious TEAE: Pneumonia (PT, Safety population): 1 (0.2%) n (%) | Serious TEAE: Prostate cancer recurrent (PT, Safety population): 1 (0.2%) n (%) | Serious TEAE: Pyelonephritis acute (PT, Safety population): 1 (0.2%) n (%) | Serious TEAE: Radiculopathy (PT, Safety population): 0 n (%) | Serious TEAE: Renal colic (PT, Safety population): 0 n (%) | Serious TEAE: Respiratory failure (PT, Safety population): 0 n (%) | Serious TEAE: Spinal osteoarthritis (PT, Safety population): 0 n (%) | Serious TEAE: Squamous cell carcinoma of skin (PT, Safety population): 0 n (%) | Serious TEAE: Squamous cell carcinoma of the oral cavity (PT, Safety population): 1 (0.2%) n (%) | Serious TEAE: Tendon rupture (PT, Safety population): 0 n (%) | Serious TEAE: Thyroid adenoma (PT, Safety population): 1 (0.2%) n (%) | Serious TEAE: Toxicity to various agents (PT, Safety population): 0 n (%) | Serious TEAE: Transient ischaemic attack (PT, Safety population): 0 n (%) | Serious TEAE: Urinary tract infection (PT, Safety population): 0 n (%) | Serious TEAE: Urosepsis (PT, Safety population): 1 (0.2%) n (%) | Serious TEAE: Urticaria (PT, Safety population): 0 n (%) | TEAE leading to death: Acute myocardial infarction (PT, Safety population): 1 (0.2%) n (%) | TEAE leading to death: Acute pulmonary oedema (PT, Safety population): 1 (0.2%) n (%) | TEAE leading to death: Cardiac failure acute (PT, Safety population): 1 (0.2%) n (%) | TEAE leading to death: Cardiac failure congestive (PT, Safety population): 0 n (%) | TEAE leading to death: Death (PT, Safety population): 0 n (%) | TEAE leading to death: Lung cancer metastatic (PT, Safety population): 0 n (%) | TEAE leading to death: Squamous cell carcinoma of the oral cavity (PT, Safety population): 1 (0.2%) n (%)
